Reference: patent US20230416410A1 (ZOETIS SERVICES, published 2023)

T1: recombinant bovine FcgR2 (bovine, UniProt Q28110 43-225, limits assumed, biotin on the BAP tag (BirA))
T1 construct: also called bFcgR2; bFcgRII
T1 sequence: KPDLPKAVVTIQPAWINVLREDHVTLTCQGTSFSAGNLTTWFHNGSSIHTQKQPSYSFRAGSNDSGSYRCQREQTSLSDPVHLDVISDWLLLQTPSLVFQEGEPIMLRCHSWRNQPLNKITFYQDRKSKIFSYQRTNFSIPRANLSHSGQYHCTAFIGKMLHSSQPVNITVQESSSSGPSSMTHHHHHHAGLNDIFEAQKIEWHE

T2: recombinant bovine FcgR3 (bovine, UniProt P79107 17-208, limits assumed, biotin on the BAP tag (BirA))
T2 construct: also called bFcgR3; bFcgRIII
T2 sequence: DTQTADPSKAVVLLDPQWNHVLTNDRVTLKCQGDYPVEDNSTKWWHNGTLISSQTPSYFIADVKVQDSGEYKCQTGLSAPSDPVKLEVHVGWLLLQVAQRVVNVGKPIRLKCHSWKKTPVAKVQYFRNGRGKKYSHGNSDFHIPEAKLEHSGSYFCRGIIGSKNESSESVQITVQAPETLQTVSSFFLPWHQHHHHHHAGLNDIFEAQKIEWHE

T3: CTLA4bG2b (canine; bovine, UniProt Q9XSI1 36-161, limits assumed)
T3 construct: No linker; also called bIgG2b wildtype (CTLA4 fusion); CTLA4 Fc bIgG2b wildtype
T3 sequence: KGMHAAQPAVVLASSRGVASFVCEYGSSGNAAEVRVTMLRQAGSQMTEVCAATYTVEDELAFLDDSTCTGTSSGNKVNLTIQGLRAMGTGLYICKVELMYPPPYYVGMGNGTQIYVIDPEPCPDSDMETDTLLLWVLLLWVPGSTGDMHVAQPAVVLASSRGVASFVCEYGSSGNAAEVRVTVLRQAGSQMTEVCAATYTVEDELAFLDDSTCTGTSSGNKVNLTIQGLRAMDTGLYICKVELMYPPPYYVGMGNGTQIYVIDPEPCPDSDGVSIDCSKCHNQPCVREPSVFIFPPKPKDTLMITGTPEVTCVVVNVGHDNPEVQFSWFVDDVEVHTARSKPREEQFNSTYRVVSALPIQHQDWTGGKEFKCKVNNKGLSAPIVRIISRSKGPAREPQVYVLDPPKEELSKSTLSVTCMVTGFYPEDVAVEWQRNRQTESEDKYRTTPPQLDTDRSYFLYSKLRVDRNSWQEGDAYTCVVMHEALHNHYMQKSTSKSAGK


Tests used:
[1] = target: complement component C1q (in bovine complement preserved serum) (bovine, UniProt Q5E9E3 23-244; Q2KIV9 23-247); test: cell-based or functional assay
Sequence of complement component C1q (in bovine complement preserved serum) (Q5E9E3 23-244, chain 1 of 2): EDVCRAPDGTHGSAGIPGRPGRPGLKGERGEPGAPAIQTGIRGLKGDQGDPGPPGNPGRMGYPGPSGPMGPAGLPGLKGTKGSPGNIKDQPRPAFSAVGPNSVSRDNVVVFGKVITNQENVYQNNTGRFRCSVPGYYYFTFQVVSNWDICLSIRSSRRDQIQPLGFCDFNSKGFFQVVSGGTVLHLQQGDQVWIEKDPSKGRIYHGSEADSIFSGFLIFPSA
Sequence of complement component C1q (in bovine complement preserved serum) (Q2KIV9 23-247, chain 2 of 2): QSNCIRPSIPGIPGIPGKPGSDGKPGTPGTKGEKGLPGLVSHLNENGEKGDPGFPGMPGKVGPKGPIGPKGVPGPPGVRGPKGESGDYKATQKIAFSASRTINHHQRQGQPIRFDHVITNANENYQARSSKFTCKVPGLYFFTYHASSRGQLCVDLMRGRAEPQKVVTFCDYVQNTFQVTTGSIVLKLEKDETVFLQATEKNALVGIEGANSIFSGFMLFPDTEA

[2] = target: T4, recombinant bovine FcgR1 (bovine, biotin on the BAP tag (BirA)); test: SPR Biacore, biotinylated receptor on SA sensor, pH 7.4, 15 C
T4 construct: also called bFcgR1; bFcgRI
Protocol: (§1) A Biacore SPR binding assay was designed to test the affinity of bovine IgG subclasses to bFcgR1, bFcgR2 and bFcgR3. All reported KD's were measured by Biacore (Cytiva, Marlborough, MA, USA) using series S SA sensor. Biotinylated-bovine FcgR1, R2 and R3 were captured on the sensor surface using a modified SA capture method to reach the desired surface density. 10 mM HEPES, 150 mM NaCl, 3 mM EDTA, 0.05% v/v surfactant P20, pH7.4 buffer was used as the running and titration buffer. Various concentrations of bovine CTLA4-Fc fusions or mAbs were titrated and flowed over the receptor surface and affinities were determined using Biacore T200 Evaluation software (Cytiva, Marlborough, MA, USA) with 1:1 binding model. The method of double referencing has been applied where the reference flow cell was subtracted from the flow cell containing immobilized receptors and blank runs containing buffer only were subtracted out from all runs. Flow cells were regenerated using 10 mM Glycine pH1.5. Runs were performed at 15° C.
(§2) Biacore methods for bFcgR1, R2, and R3 were performed as described in Examples above. […] Although the two allotypes have different KDs for bFcgR2 and bFcgR3, both wildtype allotypes do bind. All of the mutations, bIgG3Win, bIgG3WinSAS, bIgG3SAS and bIgG3SAP for both the a and b allotypes knocked down binding to bFcgR1, bFcgR2 and bFcgR3 to negligible affinities. Thus, for knocking out receptor binding, the two allotypes compare similarly.

[3] = target: T1, recombinant bovine FcgR2; test: as above
Protocol: as §1, §2

[4] = target: T2, recombinant bovine FcgR3; test: as above
Protocol: as §1, §2

[5] = target: T5, CTLA4bG2a (canine; bovine, UniProt Q9XSI1 36-161, limits assumed); test: SPR Biacore, bFcg2R amine-coupled on CM5, pH 7.4, 15 C
T5 construct: No linker; also called bIgG2a wildtype (CTLA4 fusion); CTLA4 Fc bIgG2a wildtype

[6] = target: T3, CTLA4bG2b; test: as above

| CDC EC50 Value [1] [µg/mL] | Kd [2] [nM] | Kd [3] [nM] | Kd [4] [nM] | Kd [5] [nM] | Kd [6] [nM] | Binder |
| --- | --- | --- | --- | --- | --- | --- |
| 0.028 | 12.5 | 706 | 49.6 | – | – | CTLA4 Fc bIgG3b (Fc fusion, No linker; also called bIgG3b wildtype; CTLA4 Fc bIgG3b wildtype) DMHVAQPAVVLASSRGVASFVCEYGSSGNAAEVRVTVLRQAGSQMTEVCAATYTVEDELAFLDDSTCTGTSSGNKVNLTIQGLRAMDTGLYICKVELMYPPPYYVGMGNGTQIYVIDPEPCPDSDTARRPVPTTPKTTIPPGKPTTQESEVEKTPCQCSKCPEPLGGLSVFIFPPKPKDTLTISGTPEVTCVVVDVGQDDPEVQFSWFVDDVEVHTARTKPREEQFNSTYRVVSALRIQHQDWLQGKEFKCKVNNKGLPAPIVRTISRTKGQAREPQVYVLAPPREELSKSTLSLTCLITGFYPEEIDVEWQRNGQPESEDKYHTTAPQLDADGSYFLYSRLRVNKSSWQEGDHYTCAVMHEALRNHYKEKSISRSPGK |
| – | – | – | – | 41.7 | 31.4 | recombinant bovine Fcg2R (receptor, biotin on the BAP tag (BirA)) GTFPKPIIWAEPSSVVPLGSSVTILCQGPPNTKSFSLNKEGDSTPWNIHPSLEPWDKANFFISNVREQQAGRYHCSHFIGVNWSEPSEPLDLLVAGEEPAGRLRDRPSLSVRPSPSVAPGENVTLLCQSGNRTDTFLLSKEGAAHRPLRLRSQDQDGWYQAEFSLSPVTSAHGGTYRCYRSLSTNPYLLSQPSEPLALLVADYTMQNLIRMGLAASVLLLLGILLCQARHDHGGAREAARS |
